Here are results for 6 molecules from publication PMC4168798 (ACS Chemical Biology, 2014).

T1: Bfl-1 (c-myc-tagged, without the C-terminal trans-membrane region) (human)
T1 sequence (Q16548 whole entry, looked up): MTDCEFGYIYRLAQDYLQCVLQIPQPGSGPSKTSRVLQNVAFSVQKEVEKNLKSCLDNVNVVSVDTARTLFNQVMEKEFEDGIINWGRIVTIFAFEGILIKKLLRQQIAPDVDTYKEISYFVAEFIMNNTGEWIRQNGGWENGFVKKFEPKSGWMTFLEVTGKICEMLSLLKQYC

T2: Bcl-w (c-myc-tagged, without the C-terminal trans-membrane region) (human)
T2 chain: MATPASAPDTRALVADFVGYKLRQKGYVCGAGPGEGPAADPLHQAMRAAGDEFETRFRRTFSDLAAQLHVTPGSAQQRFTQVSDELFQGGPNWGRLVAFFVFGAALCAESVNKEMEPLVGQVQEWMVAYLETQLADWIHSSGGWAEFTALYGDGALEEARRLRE

B1: Kaposi sarcoma herpesvirus Bcl-2 (domain or fragment)
chain: MDEDVLPGEVLAIEGIFMACGLNEPEYLYHPLLSPIKLYITGLMRDKESLFEAMLANVRFHSTTGINQLGLSMLQVSGDGNMNWGRALAILTFGSFVAQKLSNEPHLRDFALAVLPVYAYEAIGPQWFRARGGWRGLKAYCTQVLTRRRGRR

What all share (test): fluorescence polarisation
Assay [1] has as its target Bcl-2 (c-myc-tagged, without the C-terminal trans-membrane region) (human).
For assay [2], the target named is T1, Bfl-1 (c-myc-tagged, without the …).
Assay [3] has as its target T2, Bcl-w (c-myc-tagged, without the …).
Assay [4] has as its target Mcl-1 (c-myc-tagged, without the N-terminal domain and the C-terminal trans-membrane region) (human).
Assay [5] has as its target B1.
The target of assay [6] is Bcl-xL (c-myc-tagged, without the C-terminal trans-membrane region) (human).
Sequence of Bcl-xL (c-myc-tagged, without the C-terminal trans-membrane region) (human) (Q07817 whole entry): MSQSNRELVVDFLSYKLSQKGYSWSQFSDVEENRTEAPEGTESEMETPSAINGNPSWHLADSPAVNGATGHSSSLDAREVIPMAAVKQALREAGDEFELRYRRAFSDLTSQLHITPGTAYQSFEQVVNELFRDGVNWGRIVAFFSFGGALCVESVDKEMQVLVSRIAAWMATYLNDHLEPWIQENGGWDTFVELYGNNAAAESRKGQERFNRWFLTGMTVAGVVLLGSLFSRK
In assay [7] the target is Bim_A2eT_I3dL, N-terminal fluorescein (N-terminal 5/6-fluorescein amidite; C-terminal amidation).

Sequence of Mcl-1 (c-myc-tagged, without the N-terminal domain and the C-terminal trans-membrane region) (human) (Q07820 whole entry, the tested form may be a part): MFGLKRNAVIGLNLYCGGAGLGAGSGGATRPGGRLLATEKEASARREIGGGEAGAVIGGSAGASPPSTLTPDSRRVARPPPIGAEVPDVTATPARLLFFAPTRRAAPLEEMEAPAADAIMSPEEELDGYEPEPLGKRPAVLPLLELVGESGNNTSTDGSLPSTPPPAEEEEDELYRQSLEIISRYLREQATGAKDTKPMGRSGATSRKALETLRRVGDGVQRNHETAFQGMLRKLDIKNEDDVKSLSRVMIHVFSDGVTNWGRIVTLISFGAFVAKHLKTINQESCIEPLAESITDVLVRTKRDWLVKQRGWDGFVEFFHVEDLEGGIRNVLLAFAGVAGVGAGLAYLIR

By Kd is commonly meant the concentration at which binding is half-saturated. Read a low Kd as higher affinity. {5/6‑fluorescein amidite}-RPEIWLTQHLQRLGDEINAYYAR-NH2 (designed binder) [MS3, N-terminal fluorescein]: the Kd was greater than 3000 nM in assay [1], 790 nM in assay [2] and 340 nM in assay [3].
As for {5/6‑fluorescein amidite}-RPEIWLGQSLQRLGDEINAYYAR-NH2 (designed binder) [B3, N-terminal fluorescein], the equilibrium dissociation constant (Kd) is 35 nM in assay [1]; 26 nM in assay [2]; less than 1 nM in assay [4]; 16 nM in assay [3]; 1.43 nM in assay [5]; 4.2 nM in assay [6].
For the molecule {5/6‑fluorescein amidite}-RPEIWMTQGLRRLGDEINAYYAR-NH2 (designed binder) [MS1, N-terminal fluorescein], the affinity in assay [5], expressed as Kd, was 2.9 nM.
Take {5/6‑fluorescein amidite}-RPEIWMGQGLRRLGDEINAYYAR-NH2 (designed binder) [A12, N-terminal fluorescein]: the dissociation constant (Kd) in assay [1] stood at 42 nM; in assay [2], 22 nM; in assay [4] it was 2.4 nM; in assay [3] it was 210 nM; in assay [5], 4 nM; in assay [6], 9.8 nM.
B1 had an equilibrium dissociation constant (Kd) in assay [7] of 1 nM. This lies in the single-digit nanomolar range.
Molecule {5/6‑fluorescein amidite}-RPEIWLTQSLQRLGDEINAYYAR-NH2 (designed binder) [MS2, N-terminal fluorescein] displayed a dissociation constant (Kd) in assay [5] of less than 1 nM.
